No end group written: not given here. Alexa488 = Alexa488 dye (single fluorescent dye molecule)
Molecular target: T1, CGRP receptor on rat CNS1 glioma cells (rat, UniProt Q63118 24-464; Q9JJ74 27-148)
T1 construct: whole, on cells; Endogenous receptor; also called CGRP receptors of CNS1 glioma cells
Assay: fluorescence microscopy, 30 nM FL-CGRP on CNS1 cells
Description: FIG. 13 is a panel of microscopy images illustrating that FL-CGRP binds to CNS1 glioma cells. CNS1 cells were incubated with 30 nM FL-CGRP for 30 minutes, and imaged using phase-contrast microscopy (right, upper and lower panels) and fluorescent microscopy for FL-CGRP (left, upper and lower panels).

T1 sequence (Q63118 24-464, chain 1 of 2): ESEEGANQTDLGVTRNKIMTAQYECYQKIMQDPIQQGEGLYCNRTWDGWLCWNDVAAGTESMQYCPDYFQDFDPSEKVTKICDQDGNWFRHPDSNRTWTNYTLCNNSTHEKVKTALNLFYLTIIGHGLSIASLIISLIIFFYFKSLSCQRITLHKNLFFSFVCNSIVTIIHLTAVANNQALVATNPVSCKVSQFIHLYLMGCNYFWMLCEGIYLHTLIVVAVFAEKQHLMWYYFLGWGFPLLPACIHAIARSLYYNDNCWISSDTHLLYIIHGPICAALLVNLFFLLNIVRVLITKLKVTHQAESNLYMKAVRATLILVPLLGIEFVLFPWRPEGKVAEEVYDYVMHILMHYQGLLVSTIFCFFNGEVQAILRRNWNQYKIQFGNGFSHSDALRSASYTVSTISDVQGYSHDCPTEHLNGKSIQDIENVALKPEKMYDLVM
T1 sequence (Q9JJ74 27-148, chain 2 of 2): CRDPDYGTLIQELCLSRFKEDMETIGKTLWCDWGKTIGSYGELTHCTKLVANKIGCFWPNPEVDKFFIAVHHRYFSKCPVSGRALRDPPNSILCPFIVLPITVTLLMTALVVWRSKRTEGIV

B1: fluorescently-labeled CGRP (FL-CGRP): rat CGRP with a single Alexa488 dye on lysine 24 (peptide, UniProt P01256 83-119, looked up)
peptide: SCNTATCVTHRLAGLLSRSGGVVK(Alexa488)DNFVPTNVGSEAF
modifications: ends and bridges not checked
notes: mature; the peptide itself is the mature 37-mer; also called single-labeled FL-CGRP
Question: Does B1 bind?
Answer: binds

Reference: patent US20110189205A1 (UNIVERSITY OF ROCHESTER, published 2011)
